Laboratory results taken from US20170066831A1 (Janssen / Centocor, published 2017).

Key:
[1] = biological target: T1, cynomolgus (Macaca fascicularis) ST2L extracellular domain with C-terminal His6 tag (Macaca fascicularis (cynomolgus), UniProt Q01638 19-321 (human entry)); assay: ProteOn SPR, mAb captured, ST2L-ECD in solution
T1 construct: also called cyno ST2L-ECD; cynoST2L-ECD
T1 chain: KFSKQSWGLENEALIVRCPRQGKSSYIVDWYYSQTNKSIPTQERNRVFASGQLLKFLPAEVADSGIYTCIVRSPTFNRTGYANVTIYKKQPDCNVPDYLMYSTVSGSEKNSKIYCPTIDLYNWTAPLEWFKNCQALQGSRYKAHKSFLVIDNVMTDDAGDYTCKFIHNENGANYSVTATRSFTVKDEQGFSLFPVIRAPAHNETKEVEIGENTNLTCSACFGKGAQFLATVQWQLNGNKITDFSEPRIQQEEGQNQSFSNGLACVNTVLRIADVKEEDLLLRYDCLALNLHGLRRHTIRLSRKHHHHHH
Method: (§1) The affinities were analyzed by ProteOn. The experiments were performed at 25° C. using ProteOn's PBS-T-E buffer (PBS, 0.005% P20 and 3 mM EDTA) as running buffer. […] Mab capture was followed by injection of ST2L-ECD from 0.024-15 nM (5-fold dilutions) for 4 min (200 μL at 50 μL/min). The dissociation was monitored for 30 minutes for all reaction. Regeneration was performed using two 15 sec pulses of 10 mM glycine pH1.5. The data was fitted to a 1:1 with baseline drift model.
(§2) Association rates for the samples are fast, the langmuir with mass transfer model was used for curve fitting and estimation of Affinity. All of the samples had faster off rates than the parental clone and control Mab. The difference in off rate was the primary contributor to the lower affinity of the HFA variants when compared to the parent antibody.

[2] = biological target: T2, human ST2L extracellular domain with C-terminal His6 tag (human, UniProt Q01638 19-328); assay: ProteOn SPR, mAb captured, ST2L-ECD in solution
T2 construct: also called huST2L-ECD; ST2L-ECD
T2 sequence: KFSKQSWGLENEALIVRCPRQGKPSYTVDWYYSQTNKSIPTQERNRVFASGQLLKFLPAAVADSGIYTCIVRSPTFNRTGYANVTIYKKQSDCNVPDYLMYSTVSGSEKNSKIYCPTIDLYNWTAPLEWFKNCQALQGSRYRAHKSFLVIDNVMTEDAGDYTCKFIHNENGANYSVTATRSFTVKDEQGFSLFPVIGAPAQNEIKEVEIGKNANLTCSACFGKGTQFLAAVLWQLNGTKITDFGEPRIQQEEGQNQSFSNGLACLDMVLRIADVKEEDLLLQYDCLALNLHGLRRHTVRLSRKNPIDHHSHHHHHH
Method: as §1, §2

[3] = biological target: T2, human ST2L extracellular domain with …; assay: RLB ELISA: biotinylated IL-33 on coated huST2L-ECD, antibody titrated
Method: 96-well plate was coated with 50 μl of 4 μg/ml human ST2L-ECD (amino acids 19-328 of SEQ ID NO: 1) or 2 μg/ml cyno ST2L-ECD (amino acids 19-321 of SEQ ID NO: 2) having C-terminal His₆ tag in bicarbonate buffer at 4° C. for 16 hrs. All subsequent steps were performed at room temperature. Plate was blocked with 200 μl blocking buffer, and was washed 3 times with 300 μl of wash buffer containing PBS+0.05% Tween. 30 μl of various dilutions of anti-ST2L mAbs were added to the wells and incubated for 1 hour. For human receptor-ligand binding assay 20 μl of biotinylated human IL-33 (residues 112-270 of SEQ ID NO: 3) was added at 100 ng/ml final concentration and incubated for 30 minutes. For cyno receptor-ligand binding assay 20 μl of biotinylated cyno IL-33 (residues 112-269 of SEQ ID NO: 4) was added at 200 ng/ml final concentration and incubated for 30 minutes. The plate was washed 3 times with 300 μl of wash buffer. 50 μl of 0.2 μg/ml Streptavidin-HRP (Jackson Immunoresearch) was added and incubated for 30 min. The plate was washed 3 times with 300 μl of wash buffer containing PBS+0.05% Tween. 50 μl of TMB substrate (EMD Biosciences) was added to each well. Reaction was stopped by the addition of 100 μl of 0.2N Sulfuric Acid. OD450 were measured using Envision plate reader (Perkin Elmer).

[4] = biological target: T3, human ST2L, full length, on cells (human, UniProt Q01638 19-556); assay: cell-based or functional assay
T3 sequence: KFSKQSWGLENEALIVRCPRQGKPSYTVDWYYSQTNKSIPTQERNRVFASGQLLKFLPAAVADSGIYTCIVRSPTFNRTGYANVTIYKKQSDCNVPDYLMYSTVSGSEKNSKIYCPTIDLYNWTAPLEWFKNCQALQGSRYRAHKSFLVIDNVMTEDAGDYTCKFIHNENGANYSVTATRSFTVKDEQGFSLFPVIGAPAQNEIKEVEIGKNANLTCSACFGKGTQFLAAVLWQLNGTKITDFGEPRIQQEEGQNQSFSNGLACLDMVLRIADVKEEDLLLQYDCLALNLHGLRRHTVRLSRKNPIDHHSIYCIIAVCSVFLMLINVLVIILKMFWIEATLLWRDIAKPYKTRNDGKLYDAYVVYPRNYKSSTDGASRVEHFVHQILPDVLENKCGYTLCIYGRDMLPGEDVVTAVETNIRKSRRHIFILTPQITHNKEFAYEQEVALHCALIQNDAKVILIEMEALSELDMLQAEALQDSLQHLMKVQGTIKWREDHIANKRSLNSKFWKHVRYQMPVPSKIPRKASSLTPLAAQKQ

[5] = biological target: T1, cynomolgus (Macaca fascicularis) ST2L …; assay: SPR, mAb captured, ST2L-ECD in solution
[6] = biological target: T2, human ST2L extracellular domain with …; assay: SPR, mAb captured, ST2L-ECD in solution

| Binder | Kd [1] | koff [1] | kon [1] | Kd [2] | koff [2] | kon [2] | IC50 [3] | RGA IC50 [4] | Kd [5] | koff [5] | kon [5] | Kd [6] | koff [6] | kon [6] |
| --- | --- | --- | --- | --- | --- | --- | --- | --- | --- | --- | --- | --- | --- | --- |
| STLM205 (antibody, V domains shown, C2494 HFA mAb: VH STLH194 + VL STLL272 (O18)) VH: EVQLVQSGAEVKKPGATVKISCKVSAFNIKDDYMHWVQQAPGKGLEWMGRIDPAIGNTEYAEKFQGRVTITADTSTDTAYMELSSLRSEDTAVYYCATGDFYAMDYWGQGTLVTVSS VL: DIQMTQSPSSLSASVGDRVTITCITNTDIDDVIHWYQQKPGKAPKLLIYEGNTLRPGVPSRFSGSGSGTDFTFTISSLQPEDIATYYCLQSDNMLTFGQGTKLEIK | 0.1 nM | 0.00404 s⁻¹ | 4.04e+07 M⁻¹ s⁻¹ | 0.0401 nM | 0.000695 s⁻¹ | 1.73e+07 M⁻¹ s⁻¹ | – | – | – | – | – | – | – | – |
| STLM199 (antibody, V domains shown, C2494 HFA mAb: VH STLH194 + VL STLL278 (L2)) VH: EVQLVQSGAEVKKPGATVKISCKVSAFNIKDDYMHWVQQAPGKGLEWMGRIDPAIGNTEYAEKFQGRVTITADTSTDTAYMELSSLRSEDTAVYYCATGDFYAMDYWGQGTLVTVSS VL: EIVMTQSPATLSVSPGERATLSCITNTDIDDVIHWYQQKPGQAPRLLIYEGNTLRPGIPARFSGSGSGTEFTLTISSLQSEDFAVYYCLQSDNMLTFGQGTKLEIK | 0.0845 nM | 0.00657 s⁻¹ | 7.78e+07 M⁻¹ s⁻¹ | 0.0414 nM | 0.000897 s⁻¹ | 2.17e+07 M⁻¹ s⁻¹ | – | – | – | – | – | – | – | – |
| STLM220 (antibody, V domains shown, frameworks VH3-23 / Vk-L6) VH: EVQLLESGGGLVQPGGSLRLSCAASGFTFSFYDMFWVRQAPGKGLEWVSDIRGEGGGTAYADSVKGRFTISRDNSKNTLYLQMNSLRAEDTAVYYCARDPWSTEGSFFVLDYWGQGTLVTVSS VL: EIVLTQSPATLSLSPGERATLSCRASQSVDDDLAWYQQKPGQAPRLLIYDASNRATGIPARFSGSGSGTDFTLTISSLEPEDFAVYYCQQYIGAPITFGQGTKVEIK | – | – | – | – | – | – | 0.39 µg/mL | 0.6 µg/mL | 0.009 nM | 0.00014 s⁻¹ | 1.6e+07 M⁻¹ s⁻¹ | 0.016 nM | 9.53e-05 s⁻¹ | 5.8e+06 M⁻¹ s⁻¹ |
| STLM207 (antibody, V domains shown, frameworks VH3-23 / Vk-L6) VH: EVQLLESGGGLVQPGGSLRLSCAASGFTFSSYDMIWVRQAPGKGLEWVSTIRGEGGTTAYADSVKGRFTISRDNSKNTLYLQMNSLRAEDTAVYYCARDPWSTEGSFFVLDYWGQGTLVTVSS VL: EIVLTQSPATLSLSPGERATLSCRASQSVDDDLAWYQQKPGQAPRLLIYDASNRATGIPARFSGSGSGTDFTLTISSLEPEDFAVYYCQQYITAPLTFGQGTKVEIK | – | – | – | – | – | – | 0.36 µg/mL | 2.3 µg/mL | 0.021 nM | 0.00207 s⁻¹ | 1e+08 M⁻¹ s⁻¹ | 0.048 nM | 0.000395 s⁻¹ | 8.33e+06 M⁻¹ s⁻¹ |
| STLM123 (antibody, V domains shown, frameworks VH3-23 / Vk-L6) VH: EVQLLESGGGLVQPGGSLRLSCAASGFTFSDYAMFWVRQAPGKGLEWVSAIEGEGGETNYADSVKGRFTISRDNSKNTLYLQMNSLRAEDTAVYYCARDPWSTEGSFFVLDYWGQGTLVTVSS VL: EIVLTQSPATLSLSPGERATLSCRASQSVDDDLAWYQQKPGQAPRLLIYDASNRATGIPARFSGSGSGTDFTLTISSLEPEDFAVYYCQQYITAPLTFGQGTKVEIK | – | – | – | – | – | – | 0.28 µg/mL | 1.25 µg/mL | 0.005 nM | 0.000519 s⁻¹ | 1e+08 M⁻¹ s⁻¹ | 0.015 nM | 0.000208 s⁻¹ | 1.37e+07 M⁻¹ s⁻¹ |
| STLM107 (antibody, V domains shown, frameworks VH3-23 / Vk-L6) VH: EVQLLESGGGLVQPGGSLRLSCAASGFTFSDYAMFWVRQAPGKGLEWVSAIEGEGGETNYADSVKGRFTISRDNSKNTLYLQMNSLRAEDTAVYYCARDPWSTEGSFFVLDYWGQGTLVTVSS VL: EIVLTQSPATLSLSPGERATLSCRASQSVDDDLAWYQQKPGQAPRLLIYDASNRATGIPARFSGSGSGTDFTLTISSLEPEDFAVYYCQQYIGAPITFGQGTKVEIK | – | – | – | – | – | – | 0.44 µg/mL | 1.1 µg/mL | 0.007 nM | 0.00065 s⁻¹ | 1e+08 M⁻¹ s⁻¹ | 0.012 nM | 0.000341 s⁻¹ | 2.9e+07 M⁻¹ s⁻¹ |
| STLM103 (antibody, V domains shown, frameworks VH3-23 / Vk-L6) VH: EVQLLESGGGLVQPGGSLRLSCAASGFTFSFYDMFWVRQAPGKGLEWVSSIRGEGGRTDYADSVKGRFTISRDNSKNTLYLQMNSLRAEDTAVYYCARDPWSTEGSFFVLDYWGQGTLVTVSS VL: EIVLTQSPATLSLSPGERATLSCRASQSVDDDLAWYQQKPGQAPRLLIYDASNRATGIPARFSGSGSGTDFTLTISSLEPEDFAVYYCQQYIGAPITFGQGTKVEIK | – | – | – | – | – | – | 0.47 µg/mL | 1.92 µg/mL | 0.031 nM | 0.000202 s⁻¹ | 6.42e+06 M⁻¹ s⁻¹ | 0.041 nM | 0.000163 s⁻¹ | 3.97e+06 M⁻¹ s⁻¹ |
| STLM108 (antibody, V domains shown, frameworks VH3-23 / Vk-L6) VH: EVQLLESGGGLVQPGGSLRLSCAASGFTFSIYDMIWVRQAPGKGLEWVSTIKGEGGGTYYADSVKGRFTISRDNSKNTLYLQMNSLRAEDTAVYYCARDPWSTEGSFFVLDYWGQGTLVTVSS VL: EIVLTQSPATLSLSPGERATLSCRASQSVDDDLAWYQQKPGQAPRLLIYDASNRATGIPARFSGSGSGTDFTLTISSLEPEDFAVYYCQQYIGAPITFGQGTKVEIK | – | – | – | – | – | – | 0.23 µg/mL | 2.34 µg/mL | 0.029 nM | 0.000598 s⁻¹ | 2.05e+07 M⁻¹ s⁻¹ | 0.097 nM | 0.000222 s⁻¹ | 2.29e+06 M⁻¹ s⁻¹ |
| STLM124 (antibody, V domains shown, frameworks VH3-23 / Vk-L6) VH: EVQLLESGGGLVQPGGSLRLSCAASGFTFSIYDMIWVRQAPGKGLEWVSTIKGEGGGTYYADSVKGRFTISRDNSKNTLYLQMNSLRAEDTAVYYCARDPWSTEGSFFVLDYWGQGTLVTVSS VL: EIVLTQSPATLSLSPGERATLSCRASQSVDDDLAWYQQKPGQAPRLLIYDASNRATGIPARFSGSGSGTDFTLTISSLEPEDFAVYYCQQYITAPLTFGQGTKVEIK | – | – | – | – | – | – | 0.35 µg/mL | 0.87 µg/mL | 0.03 nM | 0.00257 s⁻¹ | 8.71e+07 M⁻¹ s⁻¹ | 0.046 nM | 0.000756 s⁻¹ | 1.65e+07 M⁻¹ s⁻¹ |
